# From article PMC9118924
# Target: arrestin-3 fused to nanoluciferase (UniProt P32121)
# Experiment: arrestin-3 interaction assay (hGPR84-eYFP with arrestin-3-nanoluciferase), 2-HTP concentration-response
# Settings: value read at the highest 2-HTP concentration, Log [2-HTP] M = -4; parent: est. 100; read off a plot
row,percent of parent,Substance
1,75 % of WT,FLAG-human GPR84-eYFP (from UniProt Q9NQS5) pmCt (the two serine residues of the C-terminal tail converted to alanine; positions not printed legibly)
2,28 % of WT,FLAG-human GPR84-eYFP (from UniProt Q9NQS5) pmIL3 (all 21 serine and threonine residues of the third intracellular loop converted to alanine; positions not printed legibly)
3,28 % of WT,FLAG-human GPR84-eYFP (from UniProt Q9NQS5) pmIL3-Ct (all 21 serines/threonines of the third intracellular loop and the two serines of the C-terminal tail converted to alanine; positions not printed legibly)
